The values that follow come from patent US10736988B2, “Bone substitute nanocomposites and methods of synthesis using multiphosphorylated peptides” (UNIVERSITY OF PITTSBURGH—OF THE COMMONWEALTH SYSTEM OF …, priority 2012, dated 2020).

One assay concerns Casein Kinase 1 (CK1). The conditions noted are these: for average number of phosphates per peptide: SD in parenthesis. On the procedure:
R-SSD3 indicated by SEQ NO. 2 was phosphorylated in vitro by CK1, CK2 or a mixture of both kinases. ATP was used as a source of phosphate; and [γ-^32P] ATP was used for the scintillation counter experiments. The standard assay mixture consisted of 50 mM Tris-HCl, pH 7.4, 5 mM MgCl2, 1 mM EGTA and 10 mM β-glycerophosphate. […] The samples were vortexed and kept for 20 minutes at room temperature before transferring into a water bath at 30° C. The reaction was started by adding 10 μl of ATP (cold Mg-ATP and 1 μCi of [γ-^32P] ATP) and the reaction mixture was incubated at 30° C. in a shaker for 1 hr. To assess the kinetics of the reactions, phosphorylation was allowed to proceed for 20 minutes, 1 hour, 4 hours and 24 hours before the reaction was stopped. The reaction was terminated by adding 40 μl of loading Tricine sample buffer (200 mM Tris-HCl, pH 6.8, 2% SDS, 40% glycerol, 0.04% Coomassie G-250 dye). The samples were then boiled in a water bath for five minutes and subjected to electrophoresis on 16.5% Tris-Tricine gel run using Tris-Tricine/SDS buffer (containing 100 mM Tris, 100 mM Tricine, 0.1% SDS, pH 8.3) at 100V for 1.5 hours.
In vitro phosphorylation assay was performed according to conventional procedure. 25 ul reactions containing 1 μg of R-SSD3 peptide indicated by SEQ NO. 2, in the presence and absence of 300 ng of either CK1 or CK2 or both containing 10 μCi ^32P γ [ATP]. The reactions were performed in triplicate at 30° C. for 1 hour, 4 hours and 24 hours using one batch of radiolabeled ATP and enzymes from a single lot.
The reaction products were purified using SDS-PAGE, visualized by autoradiography, and band intensities were quantified using a Kodak 1D 3.6 imaging system. After autoradiography, the gel was overlaid on the autoradiogram, the individual protein bands were excised and ^32P incorporation was determined using a liquid scintillation counter (Beckman LS6500 system). To calculate the number of moles of phosphates transferred to 1 ug of peptide ([…]) in the kinase reaction, the mean counts per minute obtained in the kinase reactions from triplicates (minus blank) are divided by the specific activity of the ^32Pγ[ATP] in the kinase assay, as follows.

For a further assay, the target named is T1, Casein Kinase 2 (CK2) (Homo sapiens, UniProt P68400).
T1 construct: purchased Millipore Inc. 14-197
T1 sequence (P68400 whole entry): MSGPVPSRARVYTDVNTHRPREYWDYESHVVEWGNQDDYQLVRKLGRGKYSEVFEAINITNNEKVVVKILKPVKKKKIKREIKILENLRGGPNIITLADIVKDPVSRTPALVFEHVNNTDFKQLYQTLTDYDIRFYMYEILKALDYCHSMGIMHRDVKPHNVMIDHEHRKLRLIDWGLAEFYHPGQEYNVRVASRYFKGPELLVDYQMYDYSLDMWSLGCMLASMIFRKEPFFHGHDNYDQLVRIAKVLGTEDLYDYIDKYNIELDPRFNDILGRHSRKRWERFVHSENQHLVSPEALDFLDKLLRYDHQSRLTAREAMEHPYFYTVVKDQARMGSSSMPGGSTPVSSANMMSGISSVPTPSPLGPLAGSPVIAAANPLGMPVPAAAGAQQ
T1 sequence (P67870 whole entry partner): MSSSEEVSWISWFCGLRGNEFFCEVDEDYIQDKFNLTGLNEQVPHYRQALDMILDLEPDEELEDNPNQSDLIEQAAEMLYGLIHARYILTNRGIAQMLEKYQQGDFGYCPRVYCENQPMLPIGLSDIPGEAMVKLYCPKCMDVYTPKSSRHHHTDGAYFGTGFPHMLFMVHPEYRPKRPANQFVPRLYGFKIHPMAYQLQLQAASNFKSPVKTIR
Nature of the assay: In vitro phosphorylation of peptide by CK2 (32P scintillation / autoradiography). It is filed as biochemical. The conditions noted are these: for average number of phosphates per peptide: SD in parenthesis. An excerpt:
(§1) R-SSD3 indicated by SEQ NO. […] ATP was used for the scintillation counter experiments.

The subject of another assay is CK1 and CK2. Nature of the assay: In vitro phosphorylation of peptide by CK1 and CK2 combined (32P scintillation). Format: biochemical. The conditions noted are these: for average number of phosphates per peptide: SD in parenthesis.
Excerpt: as §1

The subject of a further assay is mixture of CK1 and CK2. In words: Mass spectrometry identification of phosphates incorporated by a mixture of CK1 and CK2. It is filed as biochemical. The settings on record: MS, one hour. On the procedure:
For mass spectrometry (MS) analysis, the reaction was performed as above, however, radiolabeled ATP was not used and the reaction mixture was transferred into a Tube-O-DIALYZER with a MWCO of 1000 and dialyzed overnight.
For MALDI-TOF-MS analysis, the peptides and CHCA matrix (α-cyano-4-hydroxycinnamic acid, 10 μg/μl, in 50% acetonitrile containing 0.1% trifluoroacetic acid) solutions were premixed in a small Eppendorf tube, spun down and remixed three times, then applied directly to the sample plate. Once applied to the target, the sample was allowed to air dry. The samples were analyzed using an Applied Biosystems (Foster City, Calif.) Voyager DE Pro or 4700 Proteomics Analyzer TOF/TOF instrument. The samples were also analyzed by LC-MS/MS on a ThermoFischer (Waltham, Mass.) Surveyor LC System coupled to a ThermoFischer LCQ Deca XP Plus mass spectrometer equipped with a nanospray ion source and also a ThermoFischer LTQ-XL instrument. The LC System contained a sample trap followed by a C18 column (BioBasic C18 PicoFrit column, 10 cm×75 μM, New Objective, Inc., Woburn, Mass.). […]
Upon elution of the C18 column, the analyte was ionized by nano-capillary ESI. […] The MS/MS spectra were analyzed with BioWorks 3.2 Browser with the Sequest search engine. […]

For another assay, the target named is T2, type I collagen fibrils (Rattus norvegicus, UniProt P02454+P02466).
T2 construct: from an acidic rat tail collagen solution; from tissue; host or cells: rat tail
T2 sequence (P02454 152-1207 limits assumed): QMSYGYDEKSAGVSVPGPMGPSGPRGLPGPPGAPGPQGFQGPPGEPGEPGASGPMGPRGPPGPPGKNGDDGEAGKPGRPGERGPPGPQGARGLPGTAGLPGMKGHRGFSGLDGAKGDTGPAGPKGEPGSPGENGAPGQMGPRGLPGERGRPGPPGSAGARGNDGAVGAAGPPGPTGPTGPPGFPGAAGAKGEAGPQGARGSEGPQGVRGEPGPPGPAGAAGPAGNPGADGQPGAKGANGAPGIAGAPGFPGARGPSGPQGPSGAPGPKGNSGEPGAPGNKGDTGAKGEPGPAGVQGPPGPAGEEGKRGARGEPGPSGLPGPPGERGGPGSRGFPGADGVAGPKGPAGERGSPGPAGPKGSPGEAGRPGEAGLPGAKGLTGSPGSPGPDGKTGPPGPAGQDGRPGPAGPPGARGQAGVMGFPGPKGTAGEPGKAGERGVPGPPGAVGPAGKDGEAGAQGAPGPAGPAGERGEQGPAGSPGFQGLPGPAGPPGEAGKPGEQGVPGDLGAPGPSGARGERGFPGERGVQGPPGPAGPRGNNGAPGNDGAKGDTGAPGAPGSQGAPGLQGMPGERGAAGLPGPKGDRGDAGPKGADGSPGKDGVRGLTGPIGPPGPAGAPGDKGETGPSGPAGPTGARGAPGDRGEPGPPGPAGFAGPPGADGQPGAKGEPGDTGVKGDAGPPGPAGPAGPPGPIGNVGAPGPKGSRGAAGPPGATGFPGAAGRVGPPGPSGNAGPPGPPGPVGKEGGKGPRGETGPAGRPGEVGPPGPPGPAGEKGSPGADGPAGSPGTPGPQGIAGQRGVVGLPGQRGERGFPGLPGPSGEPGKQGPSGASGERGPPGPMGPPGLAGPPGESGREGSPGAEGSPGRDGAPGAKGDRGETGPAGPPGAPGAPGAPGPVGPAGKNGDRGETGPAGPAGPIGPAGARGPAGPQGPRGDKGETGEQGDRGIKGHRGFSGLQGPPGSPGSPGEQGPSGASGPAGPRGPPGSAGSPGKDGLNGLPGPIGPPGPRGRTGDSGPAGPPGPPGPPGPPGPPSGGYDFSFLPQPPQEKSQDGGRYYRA
T2 sequence (P02466 86-1125 limits assumed): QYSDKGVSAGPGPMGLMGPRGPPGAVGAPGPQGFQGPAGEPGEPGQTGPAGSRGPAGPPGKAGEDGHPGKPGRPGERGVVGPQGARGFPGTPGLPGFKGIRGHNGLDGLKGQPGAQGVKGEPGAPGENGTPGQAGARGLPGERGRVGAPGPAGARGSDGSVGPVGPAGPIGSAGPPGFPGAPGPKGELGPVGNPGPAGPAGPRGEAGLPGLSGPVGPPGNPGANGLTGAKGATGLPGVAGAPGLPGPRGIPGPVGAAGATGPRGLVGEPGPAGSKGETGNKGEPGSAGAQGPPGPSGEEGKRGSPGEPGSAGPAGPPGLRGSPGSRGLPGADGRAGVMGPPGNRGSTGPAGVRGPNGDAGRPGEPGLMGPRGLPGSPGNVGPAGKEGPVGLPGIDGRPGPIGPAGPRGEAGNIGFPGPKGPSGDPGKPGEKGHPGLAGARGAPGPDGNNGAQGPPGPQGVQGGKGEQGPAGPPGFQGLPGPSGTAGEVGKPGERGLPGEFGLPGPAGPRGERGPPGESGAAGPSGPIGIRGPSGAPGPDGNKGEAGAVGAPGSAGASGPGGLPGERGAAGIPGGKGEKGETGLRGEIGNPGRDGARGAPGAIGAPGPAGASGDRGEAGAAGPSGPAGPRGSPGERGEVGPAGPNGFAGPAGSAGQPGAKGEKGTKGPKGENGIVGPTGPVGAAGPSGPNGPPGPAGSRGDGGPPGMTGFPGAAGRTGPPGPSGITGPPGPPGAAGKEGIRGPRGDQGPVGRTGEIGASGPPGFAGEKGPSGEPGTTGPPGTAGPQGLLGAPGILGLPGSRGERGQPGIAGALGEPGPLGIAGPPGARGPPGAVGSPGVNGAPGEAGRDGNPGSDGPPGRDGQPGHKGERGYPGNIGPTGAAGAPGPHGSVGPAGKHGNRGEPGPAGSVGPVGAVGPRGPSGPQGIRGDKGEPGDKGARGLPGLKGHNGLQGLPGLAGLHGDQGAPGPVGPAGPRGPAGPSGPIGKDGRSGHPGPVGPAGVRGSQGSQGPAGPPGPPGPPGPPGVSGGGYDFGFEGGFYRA
Nature of the assay: On-grid mineralization of reconstituted collagen fibrils (TEM/SAED). On the procedure: Mineralization experiments were carried out using a modification of an “on grid” mineralization setup developed in a lab and published in the art. The type I collagen fibrils were reconstituted on carbon-coated Cu grids, mesh #400 (EMS, Hatfield, Pa.) from an acidic rat tail collagen solution. Concentrated 10×PBS (mono- and disodium phosphate totaling 40 mM and 1.5 M NaCl), phosphorylated with CK2 and nonphosphorylated protein stock solution, […] to obtain 4 mM PBS, 1.67 mM Ca and 15 μg/ml peptide. Prior to the experiments, the pH of concentrated 10×PBS was adjusted such that upon mixing, the pH of the final mineralization solution was 7.8. The TEM grids coated with reconstituted collagen fibrils were floated on 50 μL droplets of the mineralization solution at 100% humidity for 16 hours at 37° C.
TEM and selected area electron diffraction (SAED) studies were conducted using JEOL 1210 operated at 100 kV. The micrographs were recorded using an AMT CCD camera (AMT, Danvers, Mass.). An aluminum-coated TEM grid (EMS Hatfield, Pa.) was used as a standard for the calibration of SAED patterns for d-spacing calculations. The micrographs were analyzed using an ImageJ 1.38 software package (Bethesda, Md.).

Values joined by “and” are separate entries in the source; they are usually repeats but may differ in a detail not shown here. Equal values may be shown once. Read-outs that look alike come from different tables or passages of the source.

B1: … (peptide)
chain: RRRDEDESSDSSDSSDSSDSSDSSDSSDSSDSSDSSDSSDSSDSSDSSDSSDSSDSSDSSDSSDSSDDEG
modifications: derived from consensus mammalian sequence of DSPP; (8)..(68) [Asp Ser Ser] repeats (n varies from 2 to 20); (1)..(3) Insertion of 3 Arg at the N terminus of the peptide; (4)..(7) Casein kinase 1 recognition motif; (69)..(71) Casein kinase 2 recognition motif
Take B1: the “average number of phosphates per peptide” value is 0.006 (0.002) phosphates per peptide in the assay with Casein Kinase 1 (CK1) (CK1, 1 hour); 0.139 (0.103) phosphates per peptide in the assay with Casein Kinase 1 (CK1) (CK1, 4 hours); 1.8 phosphates per peptide and 1.778 (1.196) phosphates per peptide in the assay with Casein Kinase 1 (CK1) (CK1, 24 hours); 0.0148 (0.015) phosphates per peptide with Casein Kinase 2 (CK2) (CK2, 1 hour); 0.435 (0.099) phosphates per peptide with Casein Kinase 2 (CK2) (CK2, 4 hours); 4.4 phosphates per peptide and 4.354 (0.957) phosphates per peptide with Casein Kinase 2 (CK2) (CK2, 24 hours). Also, the “average number of phosphates per peptide” value in the assay with CK1 and CK2 (CK1 and CK2, 1 hour) was 0.0191 (0.007) phosphates per peptide; with CK1 and CK2 (CK1 and CK2, 4 hours), 0.343 (0.124) phosphates per peptide; with CK1 and CK2 (CK1 and CK2, 24 hours), 3.5 phosphates per peptide and 3.4555 (1.755) phosphates per peptide. The “share of all serines phosphorylated” value with Casein Kinase 1 (CK1) (CK1 group, 24 hours) is listed as 30%; in the assay with Casein Kinase 2 (CK2) (CK2 group, 24 hours) it was 73%; in the assay with CK1 and CK2 (CK1+CK2 group, 24 hours) it was 58%. In addition, in the assay with mixture of CK1 and CK2, the “maximum number of phosphates incorporated onto the peptide” value was “four out of six possible”. Besides, in the assay with type I collagen fibrils (15 μg/ml peptide, 16 hours, 37° C., pH 7.8, TEM), the “collagen fibril mineralization pattern” value was “randomly oriented crystals formed throughout the grid”. The “mineral nucleation outside of the collagen fibrils” value with type I collagen fibrils (TEM, phosphorylated peptide experiments) is given as “suppressed mineral nucleation outside of the collagen fibrils”.
